Columns and labels:
superoxide = assay: ROS generation: superoxide measured by decrease of DHE fluorescence; format: biochemical
Method: A ROS-generating effect of the RLuc8.6-KR protein was confirmed using 100 μL of buffer (50 mM HEPES-KOH, 24° C., pH 7.4) containing RLuc8.6-KR protein (final concentration: 10 μM), dihydroethidium (DHE, Sigma Aldrich, USA; final concentration of 100 μM) whose fluorescence intensity decreases in the presence of superoxide and a Co-h substrate solution. The rate of decrease in fluorescence intensity was measured at the excitation wavelength of 370 nm and the emission wavelength of 420 nm of DHE using a plate reader.
A ROS-generating effect of RLuc8.6-KR protein was measured using RLuc8.6-KR protein (final concentration: 10 μM) and DHE (final concentration: 100 μM) whose fluorescence intensity decreases in the presence of superoxide, and
Here, the active oxygen generation rate of each protein was measured using 100 μL of buffer (50 mM HEPES-KOH, 24° C., pH 7.4) containing FMN (final concentration: 150 μM) and a Co-h substrate solution (final concentration: 150 μM).
The rate of decrease in fluorescence intensity was measured at the excitation wavelength of 370 nm and the emission wavelength of 420 nm of DHE using a plate reader. In addition, the rate of decrease in fluorescence intensity was measured at the excitation wavelength of 380 nm and the emission wavelength of 430 nm of ADPA using a plate reader.
(§1) A ROS generation rate was measured using 100 μL of buffer (50 mM HEPES-KOH, 24° C., pH 7.4) containing the KR protein, RLuc8.6-KR protein (final concentration: 10 μM) and DHE (final concentration: 100 μM) whose fluorescence intensity decreases in the presence of superoxide.
A ROS generation rate was measured using 100 μL of buffer (50 mM HEPES-KOH, 24° C., pH 7.4) containing MS, RLuc8-MS (final concentration: 10 μM), DHE (final concentration: 100 μM) whose fluorescence intensity decreases in the presence of superoxide and FMN (final concentration: 150 μM).
After irradiation with light (referred to as +LED Light) at 10 mW/cm^2 for 30 minutes, the rate of decrease in fluorescence intensity was measured at the excitation wavelength of 370 nm and the emission wavelength of 420 nm of DHE using a plate reader.
as §1, with “μM),” for “μM) and”, “superoxide and a Co-h substrate solution (final concentration: 150 μM).” for “superoxide.”
A ROS generation rate was measured using 100 μL of buffer (50 mM HEPES-KOH, 24° C., pH 7.4) containing MS, RLuc8-MS (final concentration: 10 μM), DHE (final concentration: 100 μM) whose fluorescence intensity decreases in the presence of superoxide, FMN (final concentration: 150 μM) and a Co-h substrate solution (final concentration: 150 μM). The rate of decreasing fluorescence intensity was measured at an excitation wavelength of 370 nm and an emission wavelength of 420 nm of DHE using a plate reader.
A ROS generation rate was measured by reaction of 100 μL of buffer (50 mM HEPES-KOH, 24° C., pH 7.4) containing RLuc8.6-KR protein (final concentration: 10 μM), DHE (final concentration: 100 μM) whose fluorescence intensity decreases in the presence of superoxide, ROS scavenger (SOD (superoxide scavenger, final concentration 800U/ml), sodium azide (Singlet oxygen scavenger; final concentration: 100 mM) and D-mannitol (hydroxyl radical scavenger; final concentration: 100 mM), respectively) for 30 minutes. […]

MCF-7 cells = assay: Cell death according to incubation time per light irradiation time (SYTOX Green/DAPI); format: cell-based, human; conditions: MCF-7, protein 10 μM
Method: MCF-7 cells were seeded at 5×10^5 cells/mL in a 96-well plate (SPL Cell Culture Plate, 96 well (SPL, Cat #30096)), and cultured at 37° C. for 24 hours (overnight). After the culture for 24 hours, the cells were washed with FBS & Phenol red-free media (RPMI, Well Gene., Korea, Cat #LM011-02), and 100 μL of an FBS-free medium containing the purified protein (final concentration: 10 μM) was added, followed by reaction at 37° C. for 24 hours.
After the reaction for 24 hours, the cells were washed with FBS & Phenol red-free media (RPMI), and then 100 μL of FBS & Phenol red-free media (RPMI) was added again. After light irradiation at 10 mW/cm^2 over time, the cells were incubated at 37° C.
After incubation, 50 μL of SYTOX Green (final concentration: 261 nM) staining DNA of dead cells and 10 μL of DAPI (Vector Laboratories Inc., USA) staining DNA of live cells were added, followed by reaction for 5 minutes. Cell death was confirmed by detecting KillerRed, SYTOX Green and DAPI fluorescence according to the light irradiation time for cells using a confocal microscope.

MCF-7 = assay: Cell death after light irradiation by cell type (SYTOX Green/DAPI); format: cell-based, human; conditions: MCF-7, protein 10 μM, light 10 mW/cm^2 for 10 minutes
Method: Data on each breast cancer cell line is as follows (Table 4): MCF-7: (Origin: breast, mammary gland, Species: human—person, Growth pattern: monolayer, Media: RPMI1640 with L-glutamine (300 mg/L), 25 mM HEPES and 25 mM NaHCO3, 90%; heat inactivated fetal bovine serum (FBS), 10%), purchased from Korean Cell Line Bank (KCLB).
The cells were seeded at 5×10^5 cells/mL in 96-well plates (SPL Cell Culture Plate, 96 well (SPL, Cat #30096)), and cultured at 37° C. for 24 hours (overnight). After the culture for 24 hours, the cells were washed with FBS & phenol red-free media, and 100 μL of FBS & phenol red-free media containing a purified protein (final concentration: 10 μM) was added, followed by reaction at 37° C. for 24 hours. After the reaction for 24 hours, the cells were washed with FBS & phenol red-free media, and 100 μL of FBS & phenol red-free media was added.
After irradiation with light at 10 mW/cm^2 for 10 minutes, 50 μL (final concentration: 261 nM) of SYTOX Green staining DNA of dead cells was added, followed by reaction at 37° C. for 30 minutes. 10 μL of DAPI staining DNA of live cells was added, followed by reaction for 5 minutes. Cell death was confirmed by observing KillerRed, SYTOX Green and DAPI fluorescence using a confocal microscope.

B1: RLuc8.6-KR: fusion protein of RLuc8.6 and KillerRed without lead peptide, 69 kDa (protein)
chain: MRGSHHHHHHGMASMTGGQQMGRDLYDDDDKDPMASKVYDPEQRKRMITGPQWWARCKQMNVLDSFINYYDSEKHAENAVIFLHGNATSSYLWRHVVPHIEPVARCIIPDLIGMGKSGKSGNGSYRLLDHYKYLTAWFELLNLPKKIIFVGHDWGSALAFHYAYEHQDRIKAIVHMESVVDVIESWMGWPDIEEELALIKSEEGEKMVLENNFFVETLLPSKIMRKLEPEEFAAYLEPFKEKGEVRRPTLSWPREIPLVKGGKPDVVQIVRNYNAYLRASDDLPKLFIESDPGFFYNAIVEGAKKFPNTEFVKVKGLHFLQEDAPDEMGKYIKSFVERVLKNEQEFGGGMLCCMRRTKQVEKNDEDQKISEGGPALFQSDMTFKIFIDGEVNGQKFTIVADGSSKFPHGDFNVHAVCETGKLPMSWKPICHLIQYGEPFFARYPDGISHFAQECFPEGLSIDRTVRFENDGTMTSHHTYELDDTCVVSRITVNCDGFQPDGPIMRDQLVDILPNETHMFPHGPNAVRQLAFIGFTTADGGLMMGHFDSKMTFNGSRAIEIPGPHFVTIITKQMRDTSDKRDHVCQREVAYAHSVPRITSAIGSDED
modifications: pRSET-RLuc8.6-KillerRed
superoxide generation rate after Co-h substrate reaction (superoxide; Co-h 150 μM, 30-min reaction, without light irradiation, protein 10 μM, DHE): highest superoxide generation rate | reaction time with Co-h until which the superoxide generation rate increased, then constantly maintained (superoxide; protein 10 μM, Co-h 150 μM, DHE): 30 min | Co-h concentration until which the superoxide generation rate increased, then constantly maintained (superoxide; protein 10 μM, DHE 100 μM, substrate reaction time 5 minutes): 150 µM

B2: KR: first protein KillerRed, ROS-generating protein (superoxide), expressed from pRSET-KillerRed, 31 kDa (protein)
chain: MRGSHHHHHHGMASMTGGQQMGRDLYDDDDKDPMLCCMRRTKQVEKNDEDQKISEGGPALFQSDMTFKIFIDGEVNGQKFTIVADGSSKFPHGDFNVHAVCETGKLPMSWKPICHLIQYGEPFFARYPDGISHFAQECFPEGLSIDRTVRFENDGTMTSHHTYELDDTCVVSRITVNCDGFQPDGPIMRDQLVDILPNETHMFPHGPNAVRQLAFIGFTTADGGLMMGHFDSKMTFNGSRAIEIPGPHFVTIITKQMRDTSDKRDHVCQREVAYAHSVPRITSAIGSDED
modifications: pRSET-KillerRed
notes: first protein KillerRed, ROS-generating protein (superoxide), expressed from pRSET-KillerRed, 31 kDa
superoxide generation rate after light irradiation (superoxide; 10 mW/cm^2, 30 minutes, no substrate, protein 10 μM, DHE): higher superoxide generation rate | superoxide generation rate by Co-h reaction after ROS scavenger treatment (superoxide; RLuc8.6-KR 10 μM, Co-h 150 μM 30 minutes, SOD 800 U/ml, sodium azide 100 mM or D-mannitol 100 mM): lowest when SOD was treated

B3: RLuc8.6-KR-LP: fusion protein of RLuc8.6, KillerRed and lead peptide WLEAAYQRFL, 71 kDa (protein)
chain: MRGSHHHHHHGMASMTGGQQMGRDLYDDDDKDPMASKVYDPEQRKRMITGPQWWARCKQMNVLDSFINYYDSEKHAENAVIFLHGNATSSYLWRHVVPHIEPVARCIIPDLIGMGKSGKSGNGSYRLLDHYKYLTAWFELLNLPKKIIFVGHDWGSALAFHYAYEHQDRIKAIVHMESVVDVIESWMGWPDIEEELALIKSEEGEKMVLENNFFVETLLPSKIMRKLEPEEFAAYLEPFKEKGEVRRPTLSWPREIPLVKGGKPDVVQIVRNYNAYLRASDDLPKLFIESDPGFFYNAIVEGAKKFPNTEFVKVKGLHFLQEDAPDEMGKYIKSFVERVLKNEQEFGGGMLCCMRRTKQVEKNDEDQKISEGGPALFQSDMTFKIFIDGEVNGQKFTIVADGSSKFPHGDFNVHAVCETGKLPMSWKPICHLIQYGEPFFARYPDGISHFAQECFPEGLSIDRTVRFENDGTMTSHHTYELDDTCVVSRITVNCDGFQPDGPIMRDQLVDILPNETHMFPHGPNAVRQLAFIGFTTADGGLMMGHFDSKMTFNGSRAIEIPGPHFVTIITKQMRDTSDKRDHVCQREVAYAHSVPRITSAIGSDEDGGGWLEAAYQRFL
modifications: pRSET-RLuc8.6-KillerRed-Lead peptide
cell incubation time after which the number of cells stained with SYTOX Green increased (MCF-7 cells; light 10 mW/cm^2 for 1 minute): over 1 hour | cell incubation time from which the number of cells stained with SYTOX Green increased (MCF-7 cells; light 10 mW/cm^2 for 5 minutes or 10 minutes): approximately 30 minutes | cell death after light irradiation (MCF-7): killing the three types of cancer cell lines
